Test results: article PMC9482650, “Quantitative fragmentomics allow affinity mapping of interactomes” (Nature Communications, 2022)

Columns and labels:
Assay in all cases: holdup assay
Parameters in all cases: key: below the threshold = too weak to quantify, mostly under pKd 3.1 to 4
APBA1_2, Q02410 = target: T1, APBA1_2, Q02410
T1 sequence (Q02410 742-832, limits assumed, looked up): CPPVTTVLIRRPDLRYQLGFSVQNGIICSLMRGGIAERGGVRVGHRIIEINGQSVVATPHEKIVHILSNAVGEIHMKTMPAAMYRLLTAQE

APBA3_1, O96018 = target: T2, APBA3_1, O96018
T2 sequence (O96018 389-490, limits assumed, looked up): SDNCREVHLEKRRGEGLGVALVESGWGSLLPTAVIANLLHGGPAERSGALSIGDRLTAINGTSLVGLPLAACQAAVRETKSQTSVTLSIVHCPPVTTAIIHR

CASK, O14936 = target: CASK, O14936
CASK, O14936, sequence (O14936 487-570): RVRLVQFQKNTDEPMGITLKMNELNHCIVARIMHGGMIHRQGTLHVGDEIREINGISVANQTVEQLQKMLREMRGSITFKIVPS

DFNB31_1, Q9P202 = target: T3, DFNB31_1, Q9P202
T3 sequence (Q9P202 135-233, limits assumed, looked up): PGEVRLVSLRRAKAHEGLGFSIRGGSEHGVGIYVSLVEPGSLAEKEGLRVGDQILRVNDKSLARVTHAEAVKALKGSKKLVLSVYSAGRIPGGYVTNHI

DLG1_2, Q12959 = target: DLG1_2, Q12959
DLG1_2, Q12959, sequence (Q12959 314-412): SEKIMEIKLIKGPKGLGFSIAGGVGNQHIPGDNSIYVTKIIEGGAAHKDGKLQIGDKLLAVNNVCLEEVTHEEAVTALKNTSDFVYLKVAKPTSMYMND

DLG3_2, Q92796 = target: T4, DLG3_2, Q92796
T4 sequence (Q92796 221-321, limits assumed, looked up): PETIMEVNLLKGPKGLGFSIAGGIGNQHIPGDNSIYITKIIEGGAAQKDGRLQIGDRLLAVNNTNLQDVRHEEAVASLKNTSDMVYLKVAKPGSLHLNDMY

FRMPD2_2, Q68DX3 = target: FRMPD2_2, Q68DX3
FRMPD2_2, Q68DX3, sequence (Q68DX3 944-1038): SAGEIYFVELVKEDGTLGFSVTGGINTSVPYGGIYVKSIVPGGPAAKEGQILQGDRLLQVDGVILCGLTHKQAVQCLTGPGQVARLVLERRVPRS

FRMPD2_3, Q68DX3 = target: FRMPD2_3, Q68DX3
FRMPD2_3, Q68DX3, sequence (Q68DX3 1073-1166): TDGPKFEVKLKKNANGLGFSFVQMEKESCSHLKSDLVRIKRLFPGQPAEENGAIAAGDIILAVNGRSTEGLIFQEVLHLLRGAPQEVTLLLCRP

GIPC2, Q8TF65 = target: GIPC2, Q8TF65
GIPC2, Q8TF65, sequence (Q8TF65 112-203): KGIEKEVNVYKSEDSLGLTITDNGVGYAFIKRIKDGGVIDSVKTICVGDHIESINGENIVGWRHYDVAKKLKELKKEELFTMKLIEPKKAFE

GRIP1_3, Q9Y3R0 = target: T5, GRIP1_3, Q9Y3R0
T5 sequence (Q9Y3R0 247-346, limits assumed, looked up): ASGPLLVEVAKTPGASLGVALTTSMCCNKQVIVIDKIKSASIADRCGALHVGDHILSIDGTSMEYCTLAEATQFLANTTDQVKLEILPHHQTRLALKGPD

GRIP1_4, Q9Y3R0 = target: T6, GRIP1_4, Q9Y3R0
T6 sequence (Q9Y3R0 467-571, limits assumed, looked up): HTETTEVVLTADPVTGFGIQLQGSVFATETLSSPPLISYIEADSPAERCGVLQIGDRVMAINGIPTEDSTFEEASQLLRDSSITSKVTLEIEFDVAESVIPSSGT

Inadl_4, Q8NI35 = target: Inadl_4, Q8NI35
Inadl_4, Q8NI35, sequence (Q8NI35 547-651): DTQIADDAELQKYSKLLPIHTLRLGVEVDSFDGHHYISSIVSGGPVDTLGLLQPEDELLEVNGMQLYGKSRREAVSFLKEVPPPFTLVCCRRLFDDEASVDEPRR

Inadl_6, Q8NI35 = target: Inadl_6, Q8NI35
Inadl_6, Q8NI35, sequence (Q8NI35 1058-1167): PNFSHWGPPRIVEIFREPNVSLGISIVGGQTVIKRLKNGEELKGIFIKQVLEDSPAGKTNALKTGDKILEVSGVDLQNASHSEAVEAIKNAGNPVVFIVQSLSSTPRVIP

LAP2, Q96RT1 = target: LAP2, Q96RT1
LAP2, Q96RT1, sequence (Q96RT1 other isoform, or with tags, fused parts or gaps): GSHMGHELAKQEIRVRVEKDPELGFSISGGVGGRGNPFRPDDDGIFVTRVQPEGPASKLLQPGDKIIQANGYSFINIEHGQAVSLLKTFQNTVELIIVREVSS

MAGI2_4, Q86UL8 = target: MAGI2_4, Q86UL8
MAGI2_4, Q86UL8, sequence (Q86UL8 772-865): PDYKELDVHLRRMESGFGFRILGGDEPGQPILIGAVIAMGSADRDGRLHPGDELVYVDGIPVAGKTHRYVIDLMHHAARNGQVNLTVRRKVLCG

MPDZ_12, O75970 = target: T7, MPDZ_12, O75970
T7 sequence (O75970 1857-1958, limits assumed, looked up): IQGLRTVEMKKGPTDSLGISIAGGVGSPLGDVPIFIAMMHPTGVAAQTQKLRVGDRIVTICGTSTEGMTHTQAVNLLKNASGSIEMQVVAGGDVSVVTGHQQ

MPP6, Q9NZW5 = target: T8, MPP6, Q9NZW5
T8 sequence (Q9NZW5 125-219, limits assumed, looked up): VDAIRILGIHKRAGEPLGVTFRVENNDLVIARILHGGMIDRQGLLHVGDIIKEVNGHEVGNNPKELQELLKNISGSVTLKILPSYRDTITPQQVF

NHERF2_2, Q15599 = target: NHERF2_2, Q15599
NHERF2_2, Q15599, sequence (Q15599 142-238): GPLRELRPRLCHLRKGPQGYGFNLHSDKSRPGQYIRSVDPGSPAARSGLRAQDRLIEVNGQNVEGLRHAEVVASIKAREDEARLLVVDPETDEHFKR

PARD3B_1, Q8TEW8 = target: T9, PARD3B_1, Q8TEW8
T9 sequence (Q8TEW8 196-299, limits assumed, looked up): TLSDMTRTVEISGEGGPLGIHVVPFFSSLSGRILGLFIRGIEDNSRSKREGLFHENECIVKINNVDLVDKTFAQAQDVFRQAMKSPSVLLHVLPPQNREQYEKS

PCLO, Q9Y6V0 = target: T10, PCLO, Q9Y6V0
T10 sequence (Q9Y6V0 4491-4600, limits assumed, looked up): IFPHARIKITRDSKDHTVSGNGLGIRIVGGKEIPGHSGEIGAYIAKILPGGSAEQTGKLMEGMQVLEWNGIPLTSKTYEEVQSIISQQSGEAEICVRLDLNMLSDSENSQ

PDZD7_3, Q9H5P4 = target: T11, PDZD7_3, Q9H5P4
T11 sequence (Q9H5P4 857-944, limits assumed, looked up): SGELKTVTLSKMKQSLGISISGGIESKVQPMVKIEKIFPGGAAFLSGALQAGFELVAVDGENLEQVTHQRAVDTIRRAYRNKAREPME

PTPN13_1, Q12923 = target: T12, PTPN13_1, Q12923
T12 sequence (Q12923 1088-1188, limits assumed, looked up): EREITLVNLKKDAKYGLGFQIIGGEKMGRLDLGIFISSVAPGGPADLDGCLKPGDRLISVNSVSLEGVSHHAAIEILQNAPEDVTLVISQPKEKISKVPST

SHANK1, Q9Y566 = target: T13, SHANK1, Q9Y566
T13 sequence (Q9Y566 658-767, limits assumed, looked up): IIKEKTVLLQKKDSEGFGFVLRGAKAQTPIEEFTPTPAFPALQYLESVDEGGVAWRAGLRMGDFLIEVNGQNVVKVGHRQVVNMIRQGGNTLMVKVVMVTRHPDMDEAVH

TJP1_2, Q07157 = target: TJP1_2, Q07157
TJP1_2, Q07157, sequence (Q07157 181-274): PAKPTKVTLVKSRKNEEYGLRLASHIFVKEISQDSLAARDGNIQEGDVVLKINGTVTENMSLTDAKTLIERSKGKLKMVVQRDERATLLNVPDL

[1] = plain residues with an end cap or a label only (N-terminal biotin on a linker: ahx)
[2] = plain residues with an end cap or a label only (N-terminal biotin on a linker: ttds)

B1: TJP3, O95049 (peptide)
chain: GYDWGPATDL
APBA1_2, Q02410; [1]
  pKd: 4.17
APBA3_1, O96018; [1]
  pKd: below the threshold
CASK, O14936; [1]
  pKd: below the threshold
DFNB31_1, Q9P202; [1]
  pKd: 4.11
DLG1_2, Q12959; [1]
  pKd: 3.61
DLG3_2, Q92796; [1]
  pKd: 3.78
FRMPD2_2, Q68DX3; [1]
  pKd: 3.54
FRMPD2_3, Q68DX3; [1]
  pKd: below the threshold
GIPC2, Q8TF65; [1]
  pKd: 3.73
GRIP1_3, Q9Y3R0; [1]
  pKd: below the threshold
GRIP1_4, Q9Y3R0; [1]
  pKd: below the threshold
Inadl_4, Q8NI35; [1]
  pKd: below the threshold
Inadl_6, Q8NI35; [1]
  pKd: 4.8
LAP2, Q96RT1; [1]
  pKd: 3.73
MAGI2_4, Q86UL8; [1]
  pKd: 3.49
MPDZ_12, O75970; [1]
  pKd: below the threshold
MPP6, Q9NZW5; [1]
  pKd: below the threshold
NHERF2_2, Q15599; [1]
  pKd: 4.64
PARD3B_1, Q8TEW8; [1]
  pKd: 3.65
PCLO, Q9Y6V0; [1]
  pKd: below the threshold
PDZD7_3, Q9H5P4; [1]
  pKd: 4.14
PTPN13_1, Q12923; [1]
  pKd: below the threshold
SHANK1, Q9Y566; [1]
  pKd: 4.39
TJP1_2, Q07157; [1]
  pKd: below the threshold

B2: ATP2B4, P23634 (peptide)
chain: SSLQSLETSV
APBA1_2, Q02410; [2]
  pKd: 4.13
APBA3_1, O96018; [2]
  pKd: below the threshold
CASK, O14936; [2]
  pKd: below the threshold
DFNB31_1, Q9P202; [2]
  pKd: 4.17
DLG1_2, Q12959; [2]
  pKd: 5.43
DLG3_2, Q92796; [2]
  pKd: 5.2
FRMPD2_2, Q68DX3; [2]
  pKd: 4.64
FRMPD2_3, Q68DX3; [2]
  pKd: below the threshold
GIPC2, Q8TF65; [2]
  pKd: 4.16
GRIP1_3, Q9Y3R0; [2]
  pKd: below the threshold
GRIP1_4, Q9Y3R0; [2]
  pKd: below the threshold
Inadl_4, Q8NI35; [2]
  pKd: below the threshold
Inadl_6, Q8NI35; [2]
  pKd: below the threshold
LAP2, Q96RT1; [2]
  pKd: 4.66
MAGI2_4, Q86UL8; [2]
  pKd: 4.19
MPDZ_12, O75970; [2]
  pKd: 3.53
MPP6, Q9NZW5; [2]
  pKd: 3.56
NHERF2_2, Q15599; [2]
  pKd: 3.84
PARD3B_1, Q8TEW8; [2]
  pKd: below the threshold
PCLO, Q9Y6V0; [2]
  pKd: below the threshold
PDZD7_3, Q9H5P4; [2]
  pKd: 4.48
PTPN13_1, Q12923; [2]
  pKd: 3.5
SHANK1, Q9Y566; [2]
  pKd: 3.94
TJP1_2, Q07157; [2]
  pKd: below the threshold

B3: FRMPD4, Q14CM0 (peptide)
chain: RLPKIKETTV
APBA1_2, Q02410; [2]
  pKd: below the threshold
APBA3_1, O96018; [2]
  pKd: below the threshold
CASK, O14936; [2]
  pKd: below the threshold
DFNB31_1, Q9P202; [2]
  pKd: 3.96
DLG1_2, Q12959; [2]
  pKd: 6.06
DLG3_2, Q92796; [2]
  pKd: 5.6
FRMPD2_2, Q68DX3; [2]
  pKd: below the threshold
FRMPD2_3, Q68DX3; [2]
  pKd: below the threshold
GIPC2, Q8TF65; [2]
  pKd: below the threshold
GRIP1_3, Q9Y3R0; [2]
  pKd: below the threshold
GRIP1_4, Q9Y3R0; [2]
  pKd: below the threshold
Inadl_4, Q8NI35; [2]
  pKd: below the threshold
Inadl_6, Q8NI35; [2]
  pKd: below the threshold
LAP2, Q96RT1; [2]
  pKd: 3.87
MAGI2_4, Q86UL8; [2]
  pKd: 4.24
MPDZ_12, O75970; [2]
  pKd: below the threshold
MPP6, Q9NZW5; [2]
  pKd: below the threshold
NHERF2_2, Q15599; [2]
  pKd: below the threshold
PARD3B_1, Q8TEW8; [2]
  pKd: 3.45
PCLO, Q9Y6V0; [2]
  pKd: below the threshold
PDZD7_3, Q9H5P4; [2]
  pKd: 5.01
PTPN13_1, Q12923; [2]
  pKd: below the threshold
SHANK1, Q9Y566; [2]
  pKd: below the threshold
TJP1_2, Q07157; [2]
  pKd: below the threshold

B4: HPV18-E6, P06463 (peptide)
chain: RLQRRRETQV
APBA1_2, Q02410; [2]
  pKd: below the threshold
APBA3_1, O96018; [2]
  pKd: below the threshold
CASK, O14936; [2]
  pKd: below the threshold
DFNB31_1, Q9P202; [2]
  pKd: below the threshold
DLG1_2, Q12959; [2]
  pKd: 5.78
DLG3_2, Q92796; [2]
  pKd: 5.46
FRMPD2_2, Q68DX3; [2]
  pKd: below the threshold
FRMPD2_3, Q68DX3; [2]
  pKd: below the threshold
GIPC2, Q8TF65; [2]
  pKd: below the threshold
GRIP1_3, Q9Y3R0; [2]
  pKd: below the threshold
GRIP1_4, Q9Y3R0; [2]
  pKd: below the threshold
Inadl_4, Q8NI35; [2]
  pKd: below the threshold
Inadl_6, Q8NI35; [2]
  pKd: below the threshold
LAP2, Q96RT1; [2]
  pKd: 3.61
MAGI2_4, Q86UL8; [2]
  pKd: 4.28
MPDZ_12, O75970; [2]
  pKd: below the threshold
MPP6, Q9NZW5; [2]
  pKd: below the threshold
NHERF2_2, Q15599; [2]
  pKd: below the threshold
PARD3B_1, Q8TEW8; [2]
  pKd: below the threshold
PCLO, Q9Y6V0; [2]
  pKd: below the threshold
PDZD7_3, Q9H5P4; [2]
  pKd: 3.98
PTPN13_1, Q12923; [2]
  pKd: below the threshold
SHANK1, Q9Y566; [2]
  pKd: below the threshold
TJP1_2, Q07157; [2]
  pKd: below the threshold
